The text below walks through data of patent US20200057047A1 (NATIONAL HEALTH RESEARCH INSTITUTES, published 2020).

Assay [1] has as its target T1, HA-tagged AhR (Homo sapiens (Human), UniProt P35869 1-848, limits assumed).
T1 construct: also called HA-AhR; purified AhR; not shown: HA tag
T1 sequence: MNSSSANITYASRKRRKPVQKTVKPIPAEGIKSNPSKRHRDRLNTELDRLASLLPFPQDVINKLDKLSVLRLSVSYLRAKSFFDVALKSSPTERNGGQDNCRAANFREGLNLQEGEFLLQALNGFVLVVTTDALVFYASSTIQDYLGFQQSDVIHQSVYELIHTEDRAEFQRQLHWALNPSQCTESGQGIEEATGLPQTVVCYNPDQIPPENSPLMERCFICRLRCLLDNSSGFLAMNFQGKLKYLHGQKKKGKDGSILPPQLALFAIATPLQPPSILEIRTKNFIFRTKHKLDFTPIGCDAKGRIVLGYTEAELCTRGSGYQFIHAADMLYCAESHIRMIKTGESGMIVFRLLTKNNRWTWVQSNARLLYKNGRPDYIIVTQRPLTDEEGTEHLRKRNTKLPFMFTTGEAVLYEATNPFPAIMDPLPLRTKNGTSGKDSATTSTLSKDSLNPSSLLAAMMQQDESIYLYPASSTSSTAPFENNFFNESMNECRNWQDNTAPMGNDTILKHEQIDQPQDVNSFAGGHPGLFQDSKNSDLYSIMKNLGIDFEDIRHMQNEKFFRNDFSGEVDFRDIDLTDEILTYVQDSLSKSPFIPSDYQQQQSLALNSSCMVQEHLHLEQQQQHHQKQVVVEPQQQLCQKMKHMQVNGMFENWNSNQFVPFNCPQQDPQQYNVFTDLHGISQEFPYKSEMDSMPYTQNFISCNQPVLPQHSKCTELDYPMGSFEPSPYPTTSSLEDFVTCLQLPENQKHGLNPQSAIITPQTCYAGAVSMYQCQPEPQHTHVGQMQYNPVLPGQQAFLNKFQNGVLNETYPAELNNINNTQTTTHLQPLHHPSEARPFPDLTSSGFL
Description: co-IP, HEK293T cells co-transfected with IKKβ-CFP (FIG. 5I).

Assay [2] has as its target T2, Myc-tagged IQGAP1 (wild type) (Homo sapiens (Human), UniProt P46940 1-1657, phosphoserine at 480 where phosphorylated by GLK, as the filing reports).
T2 construct: the same molecule is used here; also called Myc-IQGAP1; IQGAP1 WT; not shown: Myc tag
Kind of assay: co-IP of anti-Flag immunocomplexes, HEK293T cells treated with 25 µM pervanadate (FIG. 18E). The method, then:
(A) Silver-stained gel of anti-Flag immunoprecipitates from HEK293T cells transfected with empty vector or Flag-tagged GLK in the presence or absence of the tyrosine phosphatase inhibitor pervanadate (25 μM). Arrows indicate the positions of GLK or GLK-interacting proteins. (B) Four pervanadate-induced tyrosine phosphorylation residues of GLK proteins were listed. (C and D) Co-immunoprecipitation of anti-Flag (C) or anti-Myc (D) immunocomplexes from lysates of HEK293T cells transfected with Flag-tagged GLK, Myc-tagged IQGAP1, or both plasmids. The whole-cell lysate immunoblots before immunoprecipitation (Pre-IP) are shown at the bottom of each panel. β-Tubulin was used as the loading control. (E) Co-immunoprecipitation of anti-Flag immunocomplexes from lysates of HEK293T cells transfected with either Flag-tagged GLK or Flag-tagged GLK mutant (Y366F, Y379F, Y574F, or Y735F). HEK293T cells were treated with 25 μM pervanadate for 2 h (F) In situ PI A of HEK293T cells transfected with empty vector, 3× Flag-tagged GLK, Myc-tagged IQGAP1, or GLK together with IQGAP1 plasmids. Arrows indicate the PLA signals (red spots). Original magnification, ×40. Scale bar, 10 μm. (G) The relative PLA signal of each group per field is shown on the plot. (H) FRET assays of HEK293T cells transfected with the indicated plasmids encoding CFP- and YFP-fused GLK and IQGAP1 proteins. […]

T2 sequence (P46940 whole entry): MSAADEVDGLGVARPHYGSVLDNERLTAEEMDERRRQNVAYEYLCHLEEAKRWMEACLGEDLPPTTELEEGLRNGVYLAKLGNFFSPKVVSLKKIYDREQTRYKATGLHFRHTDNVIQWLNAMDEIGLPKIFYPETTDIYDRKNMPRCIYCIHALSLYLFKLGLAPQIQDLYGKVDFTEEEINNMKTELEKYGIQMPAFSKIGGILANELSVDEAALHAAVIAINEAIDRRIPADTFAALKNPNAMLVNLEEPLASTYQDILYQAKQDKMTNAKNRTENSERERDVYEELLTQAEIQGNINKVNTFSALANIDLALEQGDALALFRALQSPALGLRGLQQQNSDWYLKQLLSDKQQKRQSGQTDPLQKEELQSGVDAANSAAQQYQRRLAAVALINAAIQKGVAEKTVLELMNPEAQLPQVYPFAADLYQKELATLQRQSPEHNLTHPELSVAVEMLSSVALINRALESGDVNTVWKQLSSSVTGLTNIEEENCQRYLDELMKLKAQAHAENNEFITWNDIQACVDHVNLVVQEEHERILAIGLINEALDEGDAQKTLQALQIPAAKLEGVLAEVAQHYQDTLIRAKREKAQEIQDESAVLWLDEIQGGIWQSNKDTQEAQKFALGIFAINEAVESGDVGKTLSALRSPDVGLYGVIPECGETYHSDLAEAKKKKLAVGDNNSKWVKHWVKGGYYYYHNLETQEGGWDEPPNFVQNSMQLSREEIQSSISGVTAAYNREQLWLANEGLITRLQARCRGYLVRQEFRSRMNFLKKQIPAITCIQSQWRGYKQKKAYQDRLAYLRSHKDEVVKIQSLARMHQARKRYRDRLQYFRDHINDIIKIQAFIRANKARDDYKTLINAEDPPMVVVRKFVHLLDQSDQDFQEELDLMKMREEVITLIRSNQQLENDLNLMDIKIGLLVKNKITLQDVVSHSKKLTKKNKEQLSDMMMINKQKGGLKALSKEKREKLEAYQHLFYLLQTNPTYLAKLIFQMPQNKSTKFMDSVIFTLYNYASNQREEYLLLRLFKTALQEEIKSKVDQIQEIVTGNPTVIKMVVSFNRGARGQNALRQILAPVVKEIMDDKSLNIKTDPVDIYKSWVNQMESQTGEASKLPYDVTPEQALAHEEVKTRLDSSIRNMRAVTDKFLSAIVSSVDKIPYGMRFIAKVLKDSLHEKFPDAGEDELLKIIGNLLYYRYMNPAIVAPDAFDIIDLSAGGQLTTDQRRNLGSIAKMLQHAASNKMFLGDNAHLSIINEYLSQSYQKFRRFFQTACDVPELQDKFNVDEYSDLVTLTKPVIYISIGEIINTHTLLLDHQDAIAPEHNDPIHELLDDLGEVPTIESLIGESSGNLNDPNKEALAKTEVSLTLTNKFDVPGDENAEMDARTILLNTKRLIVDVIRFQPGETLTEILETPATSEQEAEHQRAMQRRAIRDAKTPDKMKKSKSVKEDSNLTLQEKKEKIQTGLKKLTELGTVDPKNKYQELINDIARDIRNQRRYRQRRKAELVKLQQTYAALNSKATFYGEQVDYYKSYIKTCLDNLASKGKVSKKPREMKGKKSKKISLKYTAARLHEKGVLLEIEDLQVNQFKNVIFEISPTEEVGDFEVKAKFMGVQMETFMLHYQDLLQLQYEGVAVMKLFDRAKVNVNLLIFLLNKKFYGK

B1: Flag-tagged RORγt-S489A mutant (receptor)
chain: DYKDDDDKMRTQIEVIPCKICGDKSSGIHYGVITCEGCKGFFRRSQQCNVAYSCTRQQNCPIDRTSRNRCQHCRLQKCLALGMSRDAVKFGRMSKKQRDSLHAEVQKQLQQQQQQEQVAKTPPAGSRGADTLTYTLGLSDGQLPLGASPDLPEASACPPGLLRASGSGPPYSNTLAKTEVQGASCHLEYSPERGKAEGRDSIYSTDGQLTLGRCGLRFEETRHPELGEPEQGPDSHCIPSFCSAPEVPYASLTDIEYLVQNVCKSFRETCQLRLEDLLRQRTNLFSREEVTSYQRKSMWEMWERCAHHLTEAIQYVVEFAKRLSGFMELCQNDQIILLKAGAMEVVLVRMCRAYNANNHTVFFEGKYGGVELFRALGCSELISSIFDFSHFLSALCFSEDEIALYTALVLINANRPGLQEKRRVEHLQYNLELAFHHHLCKTHRQGLLAKLPPKGKLRSLCSQHVEKLQIFQHLHPIVVQAAFPPLYKELFSTDVEAPEGLSK
For B1, the binding result in assay [1] was “no binding”.

B2: Flag-tagged GLK (Y735F) mutant (enzyme)
chain: DYKDDDDKMNPGFDLSRRNPQEDFELIQRIGSGTYGDVYKARNVNTGELAAIKVIKLEPGEDFAVVQQEIIMMKDCKHPNIVAYFGSYLRRDKLWICMEFCGGGSLQDIYHVTGPLSELQIAYVSRETLQGLYYLHSKGKMHRDIKGANILLTDNGHVKLADFGVSAQITATIAKRKSFIGTPYWMAPEVAAVERKGGYNQLCDLWAVGITAIELAELQPPMFDLHPMRALFLMTKSNFQPPKLKDKMKWSNSFHHFVKMALTKNPKKRPTAEKLLQHPFVTQHLTRSLAIELLDKVNNPDHSTYHDFDDDDPEPLVAVPHRIHSTSRNVREEKTRSEITFGQVKFDPPLRKETEPHHELPDSDGFLDSSEEIYYTARSNLDLQLEYGQGHQGGYFLGANKSLLKSVEEELHQRGHVAHLEDDEGDDDESKHSTLKAKIPPPLPPKPKSIFIPQEMHSTEDENQGTIKRCPMSGSPAKPSQVPPRPPPPRLPPHKPVALGNGMSSFQLNGERDGSLCQQQNEHRGTNLSRKEKKDVPKPISNGLPPTPKVHMGACFSKVFNGCPLKIHCASSWINPDTRDQYLIFGAEEGIYTLNLNELHETSMEQLFPRRCTWLYVMNNCLLSISGKASQLYSHNLPGLFDYARQMQKLPVAIPAHKLPDRILPRKFSVSAKIPETKWCQKCCVVRNPYTGHKYLCGALQTSIVLLEWVEPMQKFMLIKHIDFPIPCPLRMFEMLVVPEQEFPLVCVGVSRGRDFNQVVRFETVNPNSTSSWFTESDTPQTNVTHVTQLERDTILVCLDCCIKIVNLQGRLKSSRKLSSELTFDFQIESIVCLQDSVLAFWKHGMQGRSFRSNEVTQEISDSTRIFRLLGSDRVVVLESRPTDNPTANSNLYILAGHENSY
B2: in assay [2], the binding result is “no binding”.
